The test system of this series is dCas9 (SpCas9 D10A/H840A) D10A,H840A (Streptococcus pyogenes). The conditions noted are these: nanochannel imaging; NEB Buffer 3, BSA, 37 C 60 min; about 16% of labels off-target; PAM not stated.

Substance “DUF1220 crRNA (with tracrRNA-ATTO647) ; linearized BAC DNA with DUF1220 repeats” showed an activity (% target sites labeled) of 86.

Values taken from US20210230664.
